In patent publication US8961929B2, “Targeting agent for tumor site” (FUJIFILM Corporation, priority 2010, dated 2015):

Test: Isoelectric point of gelatin
Type: physicochemical
Conditions: recombinant gelatin CBE3

## CBE3: recombinant gelatin, SEQ ID NO: 1, Gly-Ala-Pro[(Gly-X-Y)63]3Gly, 571 amino acids, 12 RGD sequences
  Isoelectric point: 9.34
